Usually Kd stands for the concentration at which binding is half-saturated. Low readings indicate higher affinity, high ones lower affinity. What is called koff is the first-order rate constant of dissociation. High values mean fast dissociation, low ones slow dissociation. The kon is a measure of how fast the partners come together. Read a low kon as slow association. The term stoichiometry N denotes a count of units in the complex or per binding partner.

The source of these data is publication PMC8673666 (PLoS Pathogens, 2021).

The target of series [1] is mouse integrin αvβ8 on B16-mβ8 cells (mouse (endogenous in B16) | mouse) (UniProt P43406). The series can be described thus: flow cytometry on cells. Background: In flow cytometry, cells or beads pass a laser one at a time.
In series [2] the target is human integrin αvβ8 on M000216 melanoma cells (human (endogenous in M000216)) (UniProt P06756). Put plainly: flow cytometry on cells.
In series [3] the target is biotinylated fiber knob of mouse adenovirus 3 (FKb-M3) (mouse adenovirus 3 (MAdV-3)). The series can be described thus: SPR; […], single cycle; Biacore T200, 20°C; […] (CaCl2, MgCl2, […]; 1:1 kinetic model. (SPR reads the build-up and loss of mass on a sensor chip optically.)
The target of series [4] is recombinant soluble fiber knob of mouse adenovirus 3 (FK-M3) (mouse adenovirus 3 (MAdV-3)). Put plainly: SEC-MALS.
For series [5], the target named is mouse integrin αvβ6 on CMT-93 cells (mouse (endogenous in CMT-93)) (UniProt P43406). The series can be described thus: flow cytometry on cells.
In series [6] the target is mouse integrin αvβ6 on B16-mβ6 cells (mouse (endogenous in B16) | mouse) (UniProt P43406). Put plainly: flow cytometry on cells.
The series “SEC-MALS” concerns the molecule itself. Put plainly: SEC-MALS. In general terms: In gel filtration, larger molecules generally elute earlier.
In series [7] the target is T1, soluble human integrin αvβ6 (sITG hαvβ6) (human, UniProt P06756;P18564).
T1 construct: also called human sITG αvβ6
Put plainly: SPR; […], single cycle; Biacore T200, 20°C; […] (CaCl2, MgCl2, […]; 1:1 kinetic model. The settings on record: both partners purified.

Series [8] addresses T2, soluble mouse integrin αvβ6 (sITG mαvβ6) (mouse, UniProt P43406;Q9Z0T9).
T2 construct: also called mouse sITG αvβ6; source: bought: R&D Systems, expressed in and secreted from CHO cells
The description is as above. The settings on record: both partners purified.

The target of series [9] is T3, soluble human integrin αvβ8 (sITG hαvβ8) (human, UniProt P06756;P26012).
T3 construct: also called human sITG αvβ8
The description is as above. The settings on record: both partners purified.

In series [10] the target is T4, mouse integrin αvβ6 on B16-mβ6 cells (mouse (endogenous in B16) | mouse, UniProt P43406;Q9Z0T9).
T4 construct: also called mαvβ6
Put plainly: flow cytometry on cells. The settings on record: one partner purified.

T2 sequence (P43406 31-988, chain 1 of 2): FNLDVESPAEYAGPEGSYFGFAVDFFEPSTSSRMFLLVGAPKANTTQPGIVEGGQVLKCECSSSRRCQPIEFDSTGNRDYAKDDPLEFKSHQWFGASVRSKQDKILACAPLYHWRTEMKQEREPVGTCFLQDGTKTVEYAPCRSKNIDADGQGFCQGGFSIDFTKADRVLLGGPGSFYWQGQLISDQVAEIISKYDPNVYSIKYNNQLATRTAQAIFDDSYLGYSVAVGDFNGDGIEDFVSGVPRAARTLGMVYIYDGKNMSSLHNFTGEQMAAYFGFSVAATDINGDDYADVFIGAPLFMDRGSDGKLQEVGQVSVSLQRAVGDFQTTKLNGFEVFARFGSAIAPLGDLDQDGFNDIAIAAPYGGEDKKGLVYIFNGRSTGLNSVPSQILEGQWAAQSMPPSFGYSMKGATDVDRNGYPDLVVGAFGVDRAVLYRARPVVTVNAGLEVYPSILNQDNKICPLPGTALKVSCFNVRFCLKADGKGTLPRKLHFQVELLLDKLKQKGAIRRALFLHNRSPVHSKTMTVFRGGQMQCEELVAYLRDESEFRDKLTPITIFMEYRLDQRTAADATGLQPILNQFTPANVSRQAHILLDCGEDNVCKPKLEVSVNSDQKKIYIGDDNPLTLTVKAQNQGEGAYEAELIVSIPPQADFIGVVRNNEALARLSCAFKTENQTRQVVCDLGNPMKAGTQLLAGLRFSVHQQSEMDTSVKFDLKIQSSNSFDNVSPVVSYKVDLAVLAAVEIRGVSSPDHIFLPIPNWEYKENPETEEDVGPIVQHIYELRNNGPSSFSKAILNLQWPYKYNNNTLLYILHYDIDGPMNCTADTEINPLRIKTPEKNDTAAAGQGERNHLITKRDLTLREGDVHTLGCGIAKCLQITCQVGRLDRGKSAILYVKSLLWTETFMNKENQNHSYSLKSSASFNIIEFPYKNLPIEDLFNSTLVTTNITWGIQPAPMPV
T2 sequence (Q9Z0T9 22-708, chain 2 of 2): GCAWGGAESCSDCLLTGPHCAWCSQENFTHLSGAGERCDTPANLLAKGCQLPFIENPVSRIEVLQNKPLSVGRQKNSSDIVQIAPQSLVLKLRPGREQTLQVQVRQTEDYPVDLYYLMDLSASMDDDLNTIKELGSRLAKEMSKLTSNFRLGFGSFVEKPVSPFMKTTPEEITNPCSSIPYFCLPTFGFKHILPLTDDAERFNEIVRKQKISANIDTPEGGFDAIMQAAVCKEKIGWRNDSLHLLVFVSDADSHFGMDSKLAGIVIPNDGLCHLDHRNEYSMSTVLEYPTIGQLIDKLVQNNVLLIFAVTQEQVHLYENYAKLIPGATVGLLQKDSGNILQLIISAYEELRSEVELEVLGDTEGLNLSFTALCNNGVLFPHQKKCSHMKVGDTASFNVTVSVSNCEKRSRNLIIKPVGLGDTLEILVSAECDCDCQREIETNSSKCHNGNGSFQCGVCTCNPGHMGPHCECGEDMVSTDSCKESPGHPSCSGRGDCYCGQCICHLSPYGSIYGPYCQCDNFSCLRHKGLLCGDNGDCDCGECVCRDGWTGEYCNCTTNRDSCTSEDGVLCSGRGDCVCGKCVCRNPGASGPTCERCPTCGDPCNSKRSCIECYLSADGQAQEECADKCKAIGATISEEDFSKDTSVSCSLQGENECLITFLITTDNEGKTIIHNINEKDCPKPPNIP
human integrin αvβ8 on M000216 melanoma cells (human (endogenous in M000216)), sequence (P06756 31-1048, chain 1 of 2): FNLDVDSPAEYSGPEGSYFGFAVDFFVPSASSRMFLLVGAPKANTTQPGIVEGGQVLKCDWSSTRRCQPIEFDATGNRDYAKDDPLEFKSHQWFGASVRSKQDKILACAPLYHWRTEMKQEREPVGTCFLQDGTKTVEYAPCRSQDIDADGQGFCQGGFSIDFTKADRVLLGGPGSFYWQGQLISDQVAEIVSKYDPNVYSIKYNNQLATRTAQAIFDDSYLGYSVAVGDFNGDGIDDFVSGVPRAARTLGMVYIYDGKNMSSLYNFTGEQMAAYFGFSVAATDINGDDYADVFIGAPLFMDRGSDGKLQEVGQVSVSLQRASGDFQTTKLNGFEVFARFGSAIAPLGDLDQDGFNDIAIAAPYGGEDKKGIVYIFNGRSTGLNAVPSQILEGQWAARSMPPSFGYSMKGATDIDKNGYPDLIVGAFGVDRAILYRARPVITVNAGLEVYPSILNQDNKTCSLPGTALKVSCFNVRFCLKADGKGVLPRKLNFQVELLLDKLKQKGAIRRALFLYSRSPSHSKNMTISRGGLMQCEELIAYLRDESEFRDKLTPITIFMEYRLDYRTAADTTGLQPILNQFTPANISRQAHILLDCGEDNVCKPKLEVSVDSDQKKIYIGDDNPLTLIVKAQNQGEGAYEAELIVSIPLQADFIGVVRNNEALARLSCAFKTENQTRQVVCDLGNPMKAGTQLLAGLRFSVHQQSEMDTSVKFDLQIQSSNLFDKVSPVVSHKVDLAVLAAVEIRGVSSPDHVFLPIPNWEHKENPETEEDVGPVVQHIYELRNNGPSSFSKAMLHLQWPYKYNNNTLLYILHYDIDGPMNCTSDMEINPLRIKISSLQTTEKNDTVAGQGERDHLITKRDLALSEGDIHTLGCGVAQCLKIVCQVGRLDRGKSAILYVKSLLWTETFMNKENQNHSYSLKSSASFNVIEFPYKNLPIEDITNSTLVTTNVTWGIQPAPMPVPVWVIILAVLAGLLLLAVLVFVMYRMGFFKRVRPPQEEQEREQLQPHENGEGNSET
human integrin αvβ8 on M000216 melanoma cells (human (endogenous in M000216)), sequence (P26012 43-769, chain 2 of 2, further chain): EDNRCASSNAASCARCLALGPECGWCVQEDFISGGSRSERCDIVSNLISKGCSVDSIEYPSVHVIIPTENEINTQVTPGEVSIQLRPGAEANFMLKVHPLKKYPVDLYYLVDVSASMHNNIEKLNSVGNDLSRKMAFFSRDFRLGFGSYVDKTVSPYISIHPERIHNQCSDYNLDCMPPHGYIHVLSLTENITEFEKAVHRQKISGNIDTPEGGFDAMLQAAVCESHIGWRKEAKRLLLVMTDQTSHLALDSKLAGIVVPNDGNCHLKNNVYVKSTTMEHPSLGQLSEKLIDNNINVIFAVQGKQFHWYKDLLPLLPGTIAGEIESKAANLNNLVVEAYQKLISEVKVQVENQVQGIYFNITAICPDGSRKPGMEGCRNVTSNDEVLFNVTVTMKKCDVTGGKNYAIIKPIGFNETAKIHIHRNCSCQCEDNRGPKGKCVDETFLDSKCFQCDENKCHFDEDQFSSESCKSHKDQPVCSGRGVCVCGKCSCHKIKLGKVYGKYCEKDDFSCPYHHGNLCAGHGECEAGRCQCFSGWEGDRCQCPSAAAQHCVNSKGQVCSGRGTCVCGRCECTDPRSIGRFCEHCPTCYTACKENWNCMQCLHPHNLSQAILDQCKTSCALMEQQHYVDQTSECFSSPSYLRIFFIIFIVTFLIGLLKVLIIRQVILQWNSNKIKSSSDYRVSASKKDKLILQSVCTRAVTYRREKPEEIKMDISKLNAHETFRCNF
T3 sequence (P06756 31-992, chain 1 of 2): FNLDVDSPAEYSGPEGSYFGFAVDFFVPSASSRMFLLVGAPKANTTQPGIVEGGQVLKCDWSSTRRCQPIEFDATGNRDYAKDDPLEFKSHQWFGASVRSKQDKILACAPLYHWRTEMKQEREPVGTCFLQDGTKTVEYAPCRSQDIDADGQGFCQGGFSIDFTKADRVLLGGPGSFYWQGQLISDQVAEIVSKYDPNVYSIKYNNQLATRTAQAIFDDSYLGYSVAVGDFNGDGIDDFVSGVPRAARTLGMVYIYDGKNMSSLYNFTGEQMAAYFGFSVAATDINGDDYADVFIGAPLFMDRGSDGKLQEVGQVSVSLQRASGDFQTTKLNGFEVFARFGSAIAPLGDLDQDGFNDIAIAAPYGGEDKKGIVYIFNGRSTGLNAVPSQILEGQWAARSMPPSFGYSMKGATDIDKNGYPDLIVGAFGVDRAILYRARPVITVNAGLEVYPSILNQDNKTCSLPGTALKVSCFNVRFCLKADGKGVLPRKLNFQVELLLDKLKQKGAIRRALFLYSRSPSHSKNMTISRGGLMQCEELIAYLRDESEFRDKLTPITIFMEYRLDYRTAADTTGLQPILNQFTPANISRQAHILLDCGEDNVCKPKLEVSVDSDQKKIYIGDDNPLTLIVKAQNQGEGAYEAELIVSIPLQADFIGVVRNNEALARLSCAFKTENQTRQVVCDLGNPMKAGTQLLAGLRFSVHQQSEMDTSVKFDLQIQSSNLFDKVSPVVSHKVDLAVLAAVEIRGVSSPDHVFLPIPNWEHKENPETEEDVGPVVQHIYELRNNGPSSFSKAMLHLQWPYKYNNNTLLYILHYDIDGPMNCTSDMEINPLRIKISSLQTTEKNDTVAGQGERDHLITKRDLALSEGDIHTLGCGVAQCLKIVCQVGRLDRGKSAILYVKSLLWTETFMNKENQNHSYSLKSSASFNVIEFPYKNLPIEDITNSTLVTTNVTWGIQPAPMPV
T3 sequence (P26012 43-684, chain 2 of 2): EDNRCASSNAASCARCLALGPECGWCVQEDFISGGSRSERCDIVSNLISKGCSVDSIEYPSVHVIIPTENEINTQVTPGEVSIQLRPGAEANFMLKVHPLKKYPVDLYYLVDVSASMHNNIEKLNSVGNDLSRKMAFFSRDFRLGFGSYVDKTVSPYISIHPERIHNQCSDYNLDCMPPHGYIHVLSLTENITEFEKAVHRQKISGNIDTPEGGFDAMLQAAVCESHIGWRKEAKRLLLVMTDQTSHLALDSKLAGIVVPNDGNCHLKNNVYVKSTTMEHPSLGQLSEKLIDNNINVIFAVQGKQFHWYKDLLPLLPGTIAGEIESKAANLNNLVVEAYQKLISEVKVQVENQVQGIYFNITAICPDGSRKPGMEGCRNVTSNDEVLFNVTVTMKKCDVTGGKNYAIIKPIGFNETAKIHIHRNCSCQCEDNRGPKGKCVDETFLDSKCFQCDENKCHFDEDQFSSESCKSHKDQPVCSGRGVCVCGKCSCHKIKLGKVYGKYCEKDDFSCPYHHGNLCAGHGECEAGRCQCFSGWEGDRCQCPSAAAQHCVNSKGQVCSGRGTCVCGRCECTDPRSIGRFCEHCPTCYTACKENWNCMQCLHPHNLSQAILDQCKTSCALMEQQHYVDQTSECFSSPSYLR

In the case of “MAdV-1-IX-2A-GFP virus particles (M1-IX-G), bearing the M1 fiber (from UniProt P19721 1-613) (complex)”, the fold increase of virus binding, Mg2+/Ca2+ buffer in series [1] turned out to be 1.3 fold. The fold increase of the binding enhancement in the presence of Mn2+ in [2] turned out to be 1.5 fold.
For the molecule “soluble human integrin αvβ6 (sITG hαvβ6) (from UniProt P06756;P18564) (receptor)”, in series [3], the Kd is 0.059 nM, the off-rate constant (koff) amounted to 5.01e-06 s⁻¹ and the kon came to 85000 M⁻¹ s⁻¹.
Consider “recombinant soluble fiber knob of mouse adenovirus 3 (FK-M3) (domain or fragment)”, for which the stoichiometry N in series [4] was 3. Besides, the Kd in series [5] was 0.069 nM; in series [6] it was 0.068 nM; in [1], 1.31 nM; in series [2] it was 1.21 nM.
In [1], “MAdV-3-IX-2A-GFP virus particles (M3-IX-G), bearing the M3 fiber (complex)” came in with a fold increase of virus binding, Mg2+/Ca2+ buffer of 1.3 fold and a fold increase of virus binding, Mn2+ buffer of 2.7 fold. Moreover, the fold increase of the binding enhancement in the presence of Mn2+ in [2] was determined as 3.4 fold.
Take “soluble mouse integrin αvβ6 (sITG mαvβ6) (from UniProt P43406;Q9Z0T9) (receptor)”: in series [3], the equilibrium dissociation constant (Kd) is less than 0.01 nM, the koff stood at 3.12e-08 s⁻¹ and the kon came out at 51300 M⁻¹ s⁻¹.
Taken in the same sequence, the figures for “soluble human integrin αvβ8 (sITG hαvβ8) (from UniProt P06756;P26012) (receptor)” were 1.32 nM, 0.000965 s⁻¹ and 729000 M⁻¹ s⁻¹.

B1: biotinylated fiber knob of mouse adenovirus 1 (FKb-M1) (domain or fragment)
chain: GLPIGNNGTFHTKQDCKIFLSLTRLGPMVHGTFMLQAPQYELTTNGMREITFSFNSTGGLEQPAPVTYWGALDPPPTAKAAEIENQKRVKKRAAPDPPVEPPPKRRGDLAVLFAKVAEQAMELAKEQAVQAQPPEHVNTDWADHMNLLRFMPNTLVYPTAATIAANLQFHDTRLSLRRATLKIRLNGSPDSAYQLGFMLELVGTQSASIVTDTISFWYYAEDY
modifications: biotin (biotinylated by co-expressed protein biotin ligase BirA)
In the case of B1, the “stoichiometry N” value in the series “SEC-MALS” turned out to be 3. In addition, the dissociation constant (Kd) turned out to be 1.58 nM in series [7], 0.25 nM in [8] and 14.5 nM in series [9]. The koff in series [7] came to 0.000127 s⁻¹; in series [8] it was 1.66e-05 s⁻¹; in series [9], 0.00673 s⁻¹. Besides, the kon in series [7] was determined as 80200 M⁻¹ s⁻¹; in [8], 66400 M⁻¹ s⁻¹; in series [9], 465000 M⁻¹ s⁻¹.

B2: recombinant soluble fiber knob of mouse adenovirus 1 (FK-M1) (domain or fragment)
chain: B1 chain
notes: source: pET28a expression, purified (Ni-NTA); not shown: His6, N-terminal, kept
As to B2, the dissociation constant Kd in series [10] turned out to be 1.27 ± 0.66 nM.

B3: biotinylated fiber knob of human adenovirus C5 (FKb-H5) (domain or fragment)
chain: TPAPSPNCRLNAEKDAKLTLVLTKCGSQILATVSVLAVKGSLAPISGTVQSAHLIIRFDENGVLLNNSFLDPEYWNFRNGDLTEGTAYTNAVGFMPNLSAYPKSHGKTAKSNIVSQVYLNGDKTKPVTLTITLNGTQETGDTTPSAYSMSFSWDWSGHNYINEIFATSSYTFSYIAQE
modifications: biotin (biotinylated by co-expressed protein biotin ligase BirA)
Consider B3, for which, in the series “SEC-MALS”, the “stoichiometry N” value came to 3.
